According to paper PMC7611124:

B1: Probe C (rs28416813 C allele, IFNL3 5'UTR) (dsDNA)
DNA 1: CCCCTGCCCTCAGTGGGCAGCCTCTGCATTCCCTCAGCTCCCTTTCTCTCTGTGA
DNA 2: TCACAGAGAGAAAGGGAGCTGAGGGAATGCAGAGGCTGCCCACTGAGGGCAGGGG
modifications: BrdU (written T) at positions 5 and 34 of strand 1
B2: C-oligo NF-kB (consensus cold competitor) (dsDNA)
DNA 1: CCGCTGGGACTTTCCAGGA
DNA 2: TCCTGGAAAGTCCCAGCGG

Key:
NF-kB p50 [1] = target: T1, NF-kB p50 (UniProt P19838 1-433); assay: EMSA
NF-kB p50 [2] = target: T1, NF-kB p50; assay: competition

T1 sequence (P19838 1-433): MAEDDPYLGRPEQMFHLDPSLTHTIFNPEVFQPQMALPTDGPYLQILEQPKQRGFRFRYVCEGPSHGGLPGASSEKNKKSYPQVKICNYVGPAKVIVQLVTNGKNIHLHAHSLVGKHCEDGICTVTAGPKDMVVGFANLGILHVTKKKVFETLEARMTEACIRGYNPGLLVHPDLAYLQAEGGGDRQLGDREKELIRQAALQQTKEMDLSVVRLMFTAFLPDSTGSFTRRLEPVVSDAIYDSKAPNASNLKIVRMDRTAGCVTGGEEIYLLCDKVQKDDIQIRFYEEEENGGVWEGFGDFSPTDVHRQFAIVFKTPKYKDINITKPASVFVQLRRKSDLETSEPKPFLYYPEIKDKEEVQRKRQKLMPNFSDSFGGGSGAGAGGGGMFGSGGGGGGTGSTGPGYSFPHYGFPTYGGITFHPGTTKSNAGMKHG

Binder | binding result (NF-kB p50 [1]) | binding result (NF-kB p50 [2])
B1 | binds | –
B2 | – | binds
